Measurements published in patent US20090298769A1 (CLEVELAND CLINIC FOUNDATION, published 2009).

Biological target: T1, VEGFR-2 of human endothelial cells (HUVEC) (human, UniProt P35968 20-1356)
T1 construct: whole, on cells; Endogenous, detected in cell lysates or by staining; also called VEGF receptor-2
Test: co-immunoprecipitation (anti-VEGFR-2 IP, anti-integrin β5 blot), HUVEC with or without VEGF

T1 sequence (P35968 20-1356): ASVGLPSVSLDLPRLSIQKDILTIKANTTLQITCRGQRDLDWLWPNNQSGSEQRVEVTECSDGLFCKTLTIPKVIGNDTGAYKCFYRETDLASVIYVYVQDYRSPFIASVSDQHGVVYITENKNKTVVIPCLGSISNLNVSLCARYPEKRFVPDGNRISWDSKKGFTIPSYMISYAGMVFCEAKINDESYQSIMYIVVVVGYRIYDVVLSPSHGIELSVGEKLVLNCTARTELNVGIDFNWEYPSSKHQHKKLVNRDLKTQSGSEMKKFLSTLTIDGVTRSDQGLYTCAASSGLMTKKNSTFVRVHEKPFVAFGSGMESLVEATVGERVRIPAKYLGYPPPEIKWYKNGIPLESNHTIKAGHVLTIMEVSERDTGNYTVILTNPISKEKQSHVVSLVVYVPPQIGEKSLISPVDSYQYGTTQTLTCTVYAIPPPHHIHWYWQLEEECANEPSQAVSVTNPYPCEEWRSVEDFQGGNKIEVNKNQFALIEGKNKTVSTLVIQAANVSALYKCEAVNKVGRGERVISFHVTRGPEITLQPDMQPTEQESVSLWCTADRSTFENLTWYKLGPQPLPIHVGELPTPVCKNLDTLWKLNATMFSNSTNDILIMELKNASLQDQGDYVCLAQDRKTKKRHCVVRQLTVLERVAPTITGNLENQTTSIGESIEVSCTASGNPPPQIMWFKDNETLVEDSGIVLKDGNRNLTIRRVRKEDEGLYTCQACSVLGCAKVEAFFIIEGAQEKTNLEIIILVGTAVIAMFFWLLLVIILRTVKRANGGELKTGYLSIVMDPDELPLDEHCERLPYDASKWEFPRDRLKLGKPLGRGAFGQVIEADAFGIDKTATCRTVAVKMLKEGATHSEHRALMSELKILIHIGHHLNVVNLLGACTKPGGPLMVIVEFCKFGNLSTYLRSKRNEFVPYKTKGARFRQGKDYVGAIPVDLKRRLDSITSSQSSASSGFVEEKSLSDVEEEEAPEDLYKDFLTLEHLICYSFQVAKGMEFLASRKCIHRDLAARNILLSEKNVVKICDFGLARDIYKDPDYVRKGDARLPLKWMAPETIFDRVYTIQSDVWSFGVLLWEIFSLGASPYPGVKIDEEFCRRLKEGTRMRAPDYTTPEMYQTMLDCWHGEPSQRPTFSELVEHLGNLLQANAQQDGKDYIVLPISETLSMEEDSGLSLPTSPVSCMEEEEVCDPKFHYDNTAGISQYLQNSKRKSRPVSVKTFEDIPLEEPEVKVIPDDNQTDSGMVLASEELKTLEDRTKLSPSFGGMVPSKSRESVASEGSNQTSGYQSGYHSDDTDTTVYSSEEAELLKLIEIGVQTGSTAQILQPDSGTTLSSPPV

B1: β5 integrin of HUVEC (receptor, human, UniProt P18084 24-799, looked up)
chain: GLNICTSGSATSCEECLLIHPKCAWCSKEDFGSPRSITSRCDLRANLVKNGCGGEIESPASSFHVLRSLPLSSKGSGSAGWDVIQMTPQEIAVNLRPGDKTTFQLQVRQVEDYPVDLYYLMDLSLSMKDDLDNIRSLGTKLAEEMRKLTSNFRLGFGSFVDKDISPFSYTAPRYQTNPCIGYKLFPNCVPSFGFRHLLPLTDRVDSFNEEVRKQRVSRNRDAPEGGFDAVLQAAVCKEKIGWRKDALHLLVFTTDDVPHIALDGKLGGLVQPHDGQCHLNEANEYTASNQMDYPSLALLGEKLAENNINLIFAVTKNHYMLYKNFTALIPGTTVEILDGDSKNIIQLIINAYNSIRSKVELSVWDQPEDLNLFFTATCQDGVSYPGQRKCEGLKIGDTASFEVSLEARSCPSRHTEHVFALRPVGFRDSLEVGVTYNCTCGCSVGLEPNSARCNGSGTYVCGLCECSPGYLGTRCECQDGENQSVYQNLCREAEGKPLCSGRGDCSCNQCSCFESEFGKIYGPFCECDNFSCARNKGVLCSGHGECHCGECKCHAGYIGDNCNCSTDISTCRGRDGQICSERGHCLCGQCQCTEPGAFGEMCEKCPTCPDACSTKRDCVECLLLHSGKPDNQTCHSLCRDEVITWVDTIVKDDQEAVLCFYKTAKDCVMMFTYVELPSGKSNLTVLREPECGNTPNAMTILLAVVGSILLVGLALLAIWKLLVTIHDRREFAKFQSERSRARYEMASNPLYRKPISTHTVDFTFNKFNKSYNGTVD
notes: whole, on cells; also called integrin β5
binding result: no binding
